Test results taken from patent US20160009821A1 (TDW GROUP, published 2016).

Biological target: T1, Human argininosuccinate synthase (endogenous, in human tissues and human cancer cell lines) (human, UniProt P00966 1-412)
T1 construct: Endogenous protein in formalin-fixed, paraffin-embedded human tissue and cell line sections, with cytoplasmic staining; also called ASS; ASS1
T1 sequence: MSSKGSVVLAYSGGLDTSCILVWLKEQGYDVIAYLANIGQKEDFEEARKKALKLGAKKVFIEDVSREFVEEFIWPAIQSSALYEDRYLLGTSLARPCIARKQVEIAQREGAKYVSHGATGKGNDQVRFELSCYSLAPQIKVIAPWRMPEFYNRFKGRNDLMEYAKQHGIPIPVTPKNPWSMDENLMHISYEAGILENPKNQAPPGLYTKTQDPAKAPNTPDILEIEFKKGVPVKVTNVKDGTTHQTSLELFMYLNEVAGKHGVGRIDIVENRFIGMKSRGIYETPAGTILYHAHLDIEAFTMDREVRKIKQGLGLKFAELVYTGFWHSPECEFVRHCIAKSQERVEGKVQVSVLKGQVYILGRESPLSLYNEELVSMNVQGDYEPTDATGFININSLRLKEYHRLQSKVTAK
Assay: immunohistochemistry on formalin-fixed, paraffin-embedded clinical samples
Method: Formalin-fixed, paraffin-embedded specimens were sectioned at 4-5 μm and mounted on positively charged slides. Slides were air dried and then placed in a 60° C. oven for 60 minutes. Slides were stained using the Leica Bond III instrument. Paraffin was removed from the slides using the standard Leica Bond dewax protocol. The tissue was antigen retrieved with either Bond ER1 for 5 or Bond ER2 for 20 minutes.
Mouse anti-argininosuccinate synthase monoclonal antibody was applied to the slide at a concentration of 0.625 μg/mL and incubated for 15 min or 0.4 μg/mL and incubated for 30 minutes. The Leica Bond Polymer Refine Detection kit was used to visualize the staining—post primary for 8 minutes and polymer for 8 minutes. The slides were then treated with Peroxide Block for five minutes followed by Mixed DAB Refine for ten minutes. Stained sections were counterstained with hematoxylin for […] The slides were then dehydrated and cover-slipped.

binding result: binds
B1: Mouse anti-argininosuccinate synthase monoclonal antibody used for immunohistochemistry in Example 2 (antibody, V domains shown)
VH: QIQLVQSGPELKKPGETVKISCKTSGYTFTDYSIHWVKQAPGKGLTWMGWINTETGEPTYADDFKGRFALSLETSASTAYLQLKNLRNEDTATYFCGSSYSYWGQGTLVTVSS
VL: DVVMTQTPLSLPVSLGDQASISCRSSQSLENSNGKTYLNWFLQKPGQSPQLLIYRVSNRFSGVPDRFSGSGSGTEFTLKISRVEAEDLGVYFCLQVKHVPWTFGGGTKLEIK
